According to the supplement of paper PMC9170038:

Test system: MS2 coat protein
Assay: apparent KD of MS2 coat protein; designed switch direction (-1 OFF switch, 1 ON switch): -1; higher = weaker reporter binding
How it was run: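 Designed RNA switches with common flanks were made on Illumina chips by stalled E. coli RNA polymerase. Titration with SNAP-549-labelled MS2 coat protein doubled from 0.7 or 1.5 nM up to 3 µM. Apparent KD is each design's median over clusters after curve-fitting normalised fluorescence.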

[1] = Eterna round: R95, input ligand: FMN 200 uM
[2] = Eterna round: R95, input ligand: microRNA oligo, concentration not stated
[3] = Eterna round: R95, input ligand: none
[4] = input ligand: microRNA oligo, concentration not stated

Sequence	apparent KD of MS2 coat protein [1]	apparent KD of MS2 coat protein [2]	apparent KD of MS2 coat protein [3]	apparent KD of MS2 coat protein (input ligand: FMN 200 uM)	apparent KD of MS2 coat protein (input ligand: none)	apparent KD of MS2 coat protein [4]
AAAUAACAAGCGAGAUCCUACAUGAGGAUCACCCAUGUGCUCGUCUUAACAAGUACUAUCACGAAAGUGAUAGUACA [Mat - Sensor v3 - turn-off var 1 - Eli Mod - D69] (puzzle: Sensor v3, turn-off variant 1)	17.5 nM	59.4 nM	12.1 nM			
AAAUACAAGUAAAGAUCUUACAUGAGGAUCACCCAUGUGCUCGUCUUAUAAAGUACUAUCACGAAAGUGAUAGUACA [Sensor 3, v1 - 25] (puzzle: Sensor v3, turn-off variant 1)	15.9 nM	159 nM	18.4 nM			
AAAUAGGGAGGAUAUCCAAUAUAUGACAUGAGGAUCACCCAUGUUUCCACUCGUACCUCCGGAGAAGGCCCAUAAU [Ex5 #2] (Eterna round: R97, puzzle: Exclusion 5)				25.8 nM	23.9 nM	
AAAUUGGUAGAGGAUAUUGUACAGGAAACGGUGCGAGAAGGUUGCACAUGAGGAUCACCCAUGUUUAGUUGCGA [EX6 #47] (Eterna round: R97, puzzle: Exclusion 6)				27.2 nM	32.4 nM	
AACAAGUCAGGAUAUGCCCUGAUAGACUUGAGGAUCACCCAAGUAAGUCUAUCUGGCUAAGCAGAAGGGACAAAAG [Usrabe] (Eterna round: R97, puzzle: Exclusion 5)				643 nM	649 nM	
AACAGAAAAGAAAUAAAUAACAUGAGGAUCACCCAUGUCAACGGGUAAGAGCUCAACGAGCUGCGAGUCUUACUCAA [Enreaerre] (Eterna round: R96, puzzle: Sensor v2, turn-off variant)				25.7 nM	24.7 nM	17.5 nM
AACAGGUCAGGAUAUACAUGAGGAUCACCCAUGUAGACUUCUAGUCUACCGAGGCUGUGUAGAAGGGACCUGAA [Exclusion 3 (MOD4 of #98 Marzena11)] (Eterna round: R97, puzzle: Exclusion 3)				175 nM	43.3 nM	
AACAGUCCUUAGGAUAUGUGCGAUUAAUAUCGUGCAGAAGGAUGGACAUGAGGAUCACCCAUGUAAAUACUACC [Omei Ex6 A17] (Eterna round: R97, puzzle: Exclusion 6)				62.6 nM	20.9 nM	
AACCGGCGGACCGAAGCUUUUUGCUUGUUUUAUACUACAACAUGAGGAUCACCCAUGUGGUGGUGGUCCGUUGUAGA [Bitein] (puzzle: Sensor v3, turn-off variant 2)	47.9 nM	16.1 nM	52.9 nM			
AACCUAAGGCAAAGCUUUAGGUGUACAUGAGGAUCACCCAUGUAGGAUAUGGUAGGCAAAGCUUACCAGAAGGACAUUAUGAUA [Mat - Exclusion NG 3 - Mod of JL - D53] (Eterna round: R96, puzzle: Exclusion NG 3)				82.1 nM	55.2 nM	27.5 nM
AACCUGAGGCUUUGCUUUAGGUUUACAUGAGGAUCACCCAUGUAGGAUAUGGUAGGCUUUGCUUACCAGAAGGACAUGAAAAUU [Mat - Exclusion NG 3 - Mod of JL - D28] (Eterna round: R96, puzzle: Exclusion NG 3)				225 nM	44.2 nM	40.4 nM
AACGCUAAAGGAUAUACAUGAGGAUCACCCAUGUUGAGGAAGGUUAGAUGAGGAGUAAGUAGAAGGUUAGACGA [JR_Exclu3_Sub090] (puzzle: Exclusion 3)		23.7 nM				
AACUACUCUGUGAGGAUAUGCGAUCGUUGAUCAAAGCAGAAGGCACAUGAGGAUCACCCAUGUUCCUACGAGGG [Edatbiat] (puzzle: Brourd's mod of Exclusion 4)		30.2 nM				
AACUCACAUGAGGAUCACCCAUGUGAGGAUAUGGAUUCGCUGGCCGUAGCCAGUGGAUCCAGAAGGCGCAUGAU [JL-ex1-4.10] (Eterna round: R97, puzzle: Exclusion 1)				23.1 nM	21.2 nM	
AACUUCUGAGGAUAUACAUAGAUUUACAUGAGGAUCACCCAUGUUCCUCUUUGUAUAAAUGUAGAAGGCAGAAGAA [Mat - Exclusion 5 - JL Mod - D72] (Eterna round: R97, puzzle: Exclusion 5)				349 nM	203 nM	
AAGAAAAGGAGAGGAUAUGCGAAAGGAAGUGUAGCAGAAGGCUUCGGGUAAGUCCACAUGAGGAUCACCCAUGUUAAUAAAAGA [PowerStrip EXNG 1.19] (Eterna round: R96, puzzle: Exclusion NG 1)				345 nM	436 nM	290 nM
AAGAAACAUGAGGAUCACCCAUGUGAGGAUAUGAGUAAGAAAAGAAAAGAAAGAAGAGUCAGAAGGCACAAAGG [salish99-ex1_r3_060] (puzzle: Exclusion 1)	49.5 nM	35.4 nM	41.5 nM			

Sequence	apparent KD of MS2 coat protein [1]	apparent KD of MS2 coat protein [2]	apparent KD of MS2 coat protein [3]	apparent KD of MS2 coat protein (input ligand: FMN 200 uM)	apparent KD of MS2 coat protein (input ligand: none)	apparent KD of MS2 coat protein [4]
AAGAAACAUGAGGAUCACCCAUGUGAGGAUAUGAUGAGUAUUAUGUAUGUAGUAUGAAUCAGAAGGCACAAAGG [Mat - Mod Mix D40] (puzzle: Exclusion 1)	224 nM	95 nM	158 nM			
AAGAAACAUGAGGAUCACCCAUGUGAGGAUAUGGAAAAGAAAAGAAAAGAAAGAAGAAUCAGAAGGCACAAAGG [salish99-ex1_r3_020] (puzzle: Exclusion 1)	40.8 nM	33.7 nM	37.6 nM			
AAGAAACAUGAGGAUCACCCAUGUGAGGAUAUGUAAAGAAAAGAAAAAGAAAAGAAAAACAGAAGGCACAAAGA [JR_Exclusion1_Sub001] (puzzle: Exclusion 1)	38.7 nM	43.6 nM	34 nM			
AAGAAACGAGGAUAUACAAUUAAGAGAGAGAAGGAAAUGAGACAUGAGGAUCACCCAUGUAGAAGGCGUAAGAA [JR_Exclu2_Sub082] (puzzle: Exclusion 2)	27.6 nM	31.1 nM	26.5 nM			
AAGAAGAAGUAAGGAUAUGAAGAUUUGGUGAUAACAUGAGGAUCACCCAUGUGAAAACAAUAAGAUCAGAAGGUAUAAGAAGAA [AK ExNG2-2.1] (Eterna round: R96, puzzle: Exclusion NG 2)				53.9 nM	72.1 nM	42.1 nM
AAGAAGAUCAAAGGAUAUGGAGCUGAAACGGCGCUAGAAGGUUGUCUAGUGUAACAUGAGGAUCACCCAUGUAGGGACCUCUAA [AK ExNG1-V2-2] (Eterna round: R96, puzzle: Exclusion NG 1)				562 nM	644 nM	385 nM
AAGAGGAUUAUAGGAUAUGAAGCUAAAACGGCGUUAGAAGGGUAUACAGAGUUACAUGAGGAUCACCCAUGUUGUGAUUUCUAA [AK ExNG1-V2-4.3] (Eterna round: R96, puzzle: Exclusion NG 1)				52.6 nM	62.5 nM	36.9 nM
AAGAGUGAGCGAGGAUAUUGAUUUUGGCGUAGUCAAGAAGGCGCGUACAUGAGGAUCACCCAUGUGCUCAGAGCGCAAAAGGGU [Gequon] (Eterna round: R96, puzzle: Exclusion NG 1)				208 nM	68.2 nM	49.8 nM
AAGAUGCGGGUAGGAUAUGGGAAUUAAUAAAGACCAGAAGGACUGGUCACACAACAUGAGGAUCACCCAUGUGUGUGUAGUGAA [exng1 ex1] (Eterna round: R96, puzzle: Exclusion NG 1)						9.2 nM
AAGCAGCGAGGAUAUGCUUGCGCGUGUCCUAGUUGAAAUAAACUUGAGGAUCACCCAAGUAGAAGGCGCAACCC [EX2 #42] (Eterna round: R97, puzzle: Exclusion 2)				197 nM	41.9 nM	
AAGCAUUGCCAAAGGUAGUGCAAAACAUGAGGAUCACCCAUGUAGGAUAUGGUAGGCAAAGCUUACCAGAAGGACAUGAUAAAU [Mat - Exclusion NG 3 - Mod of JL - D19] (Eterna round: R96, puzzle: Exclusion NG 3)				218 nM	42 nM	28 nM
AAGGAUAGAGGAUAUACAUAGAUACAGAUUCAUGUAAUCCUACAUGAGGAUCACCCAUGUAGAAGGCUAUCCUA [Fiskers Ex 2 - 15] (puzzle: Exclusion 2)		14.5 nM				
AAGGAUAGAGGAUAUACGUAGAUACAGAUUCAUGUAGAACUACAUGAGGAUCACCCAUGUAGAAGGCUAUCCUA [Fiskers Ex 2 - 6] (Eterna round: R96, puzzle: Exclusion 2)				354 nM	29 nM	24.8 nM
AAGGAUAGAGGAUAUACGUAGAUACAGAUUCAUGUAGAACUACAUGAGGAUCACCCAUGUAGAAGGCUAUCCUA [Fiskers Ex 2 - 6] (puzzle: Exclusion 2)		26.5 nM				
AAGGAUAGAGGAUAUGCAUAGAUACAGAUUCAUGUAGAACUACAUGAGGAUCACCCAUGUAGAAGGCUAUCCUA [Fiskers Ex 2 - 5] (puzzle: Exclusion 2)		17.3 nM				
AAGGAUCGAGGAUAUACAUAGAUACAGAUUCAUGUAGAACUACAUGAGGAUCACCCAUGUAGAAGGCGAUCCUA [Mat - Same state - Mayanna Mod - D120] (Eterna round: R96, puzzle: Exclusion 2)				367 nM	41.3 nM	31.1 nM
AAGGGUACUUUCAGAACGACAUGAGGAUCACCCAUGUAGACUGAGGAUAUCUGCUACUAAGGACGGGAGAAGGCAGUGUAAUGU [Ex NG3 #74] (Eterna round: R96, puzzle: Exclusion NG 3)				10.6 nM	14.2 nM	11.1 nM
